This passage reports Km results from article doi:10.1101/2023.02.27.530324v2.

Substrate in data set [1]: CCCCCCCCC=O
As to the kind of experiment: in vivo luminescence of E. coli cells, aldehyde titration, nonlinear fit. It counts as cell-based, Photorhabdus luminescens. The conditions noted are these: whole E. coli K12 MG1655 pABX cells; apparent constant; cellular FMNH2 and O2.

Substrate in data set [2]: CCCCCC=O
Described as above. The conditions noted are these: whole E. coli K12 MG1655 pABX cells; apparent constant; cellular FMNH2 and O2. It counts as cell-based, Photorhabdus luminescens.

B1: PlLuxAB (Photorhabdus luminescens) (protein)
chain: MKFGNFLLTYQPPQFSQTEVMKRLVKLGRISEECGFDTVWLLEHHFTEFGLLGNPYVAAAYLLGATKKLNVGTAAIVLPTAHPVRQLEDVNLLDQMSKGRFRFGICRGLYNKDFRVFGTDMNNSRALAECWYGLIKNGMTEGYMEADNEHIKFHKVKVNPAAYSRGGAPVYVVAESASTTEWAAQFGLPMILSWIINTNEKKAQLELYNEVAQEYGHDIHNIDHCLSYITSVDHDSIKAKEICRKFLGHWYDSYVNATTIFDDSDQTRGYDFNKGQWRDFVLKGHKDTNRRIDYSYEINPVGTPQECIDIIQKDIDATGISNICCGFEANGTVDEIIASMKLFQSDVMPFLKEKQRSLLY
Take B1: the Km – broadly, the concentration of substrate that gives half-maximal velocity – amounted to 0.025 ± 0.002 mM in data set [1] and 7 ± 2 mM in data set [2].
